{"source": "paper PMC12800249", "about": "(Scientific Reports, 2025)", "key": {"[1]": {"target": "delta opioid receptor (DOR) (Rattus norvegicus, UniProt P33533)", "sequence (P33533 whole entry)": "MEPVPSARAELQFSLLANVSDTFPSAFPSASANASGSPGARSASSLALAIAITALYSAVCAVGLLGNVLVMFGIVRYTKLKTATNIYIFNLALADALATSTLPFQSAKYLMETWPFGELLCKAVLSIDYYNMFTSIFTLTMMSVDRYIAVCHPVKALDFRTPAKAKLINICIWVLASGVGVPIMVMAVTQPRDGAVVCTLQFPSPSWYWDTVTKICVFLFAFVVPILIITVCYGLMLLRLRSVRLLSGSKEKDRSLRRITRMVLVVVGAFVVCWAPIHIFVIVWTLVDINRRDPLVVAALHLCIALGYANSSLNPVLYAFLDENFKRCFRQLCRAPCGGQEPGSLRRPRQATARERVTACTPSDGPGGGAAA", "experiment": "Intracellular cAMP assay", "type": "cell-based", "settings": "FRSK cells; 10 μM forskolin, 1–1000 nM peptide, 30 min; cAMP-Glo"}, "MOR": {"tested_on": "MOR", "settings": "literature statement; cited from earlier work"}}}
{"substance": "β-endorphin", "values": [{"measurement": "effect on forskolin-induced intracellular cAMP", "setting": "[1]", "result": "attenuated this forskolin-induced increase in cAMP concentration in a dose-dependent manner"}, {"measurement": "receptor preference (MOR)", "setting": "MOR", "result": "primary ligand for MOR"}]}
